# Laboratory results published in PMC7971322, “Insights into the mechanism regulating the differential expression of the P28-OMP outer membrane proteins in obligatory intracellular pathogen Ehrlichia chaffeensis”.
# B1: Tr1 protected region IV (upstream of p28) (dsDNA)
# DNA 1: TAATCACTTTACTATAGTAACACTAAGTGTATGCCACTTTGGAGTGGAAC
# DNA 2: GTTCCACTCCAAAGTGGCATACACTTAGTGTTACTATAGTAAAGTGATTA
# B2: Tr1 protected region III (tr1 promoter) (dsDNA)
# DNA 1: TAAAGCATAATATGTTATTTCTGTATATTATATAAT
# DNA 2: ATTATATAATATACAGAAATAACATATTATGCTTTA
# B3: Tr1 protected region II (omp-1B promoter) (dsDNA)
# DNA 1: AGTAAAGTTAACTATAGATTTTATTAAAATTTTTATTCTAATCACTTTAA
# DNA 2: TTAAAGTGATTAGAATAAAAATTTTAATAAAATCTATAGTTAACTTTACT
# B4: Tr1 protected region II, mutated motif (dsDNA)
# DNA 1: AGTAAAGTTAGGGGGGGATTTTATTAAAATTTTTATTCTAATCACTTTAA
# DNA 2: TTAAAGTGATTAGAATAAAAATTTTAATAAAATCCCCCCCTAACTTTACT
# B5: Tr1 protected region I (p28 promoter) (dsDNA)
# DNA 1: TACACATGATACTATACTTAACCAGTTTTTTTGCTATTACTTACCTGACG
# DNA 2: CGTCAGGTAAGTAATAGCAAAAAAACTGGTTAAGTATAGTATCATGT
# B6: Tr1 protected region I, mutated motif (dsDNA)
# DNA 1: TACACATGATGGGGGGCTTAACCAGTTTTTTTGCTATTACTTACCTGACG
# DNA 2: CGTCAGGTAAGTAATAGCAAAAAAACTGGTTAAGCCCCCCATCATGTGTA
# What was measured:
# [1] = target: T1, rTr1 (Ehrlichia chaffeensis) (UniProt Q2GF81); assay: DNase I footprinting; conditions: EMSA/footprint: 10 mM Tris-HCl pH 7.5, 100 mM NaCl, 1 mM DTT, 10% glycerol, 25 C, SPR: 10 mM Tris-HCl pH 7.5, 100 mM NaCl, 0.05% Tween 20, 25 C
# T1 sequence: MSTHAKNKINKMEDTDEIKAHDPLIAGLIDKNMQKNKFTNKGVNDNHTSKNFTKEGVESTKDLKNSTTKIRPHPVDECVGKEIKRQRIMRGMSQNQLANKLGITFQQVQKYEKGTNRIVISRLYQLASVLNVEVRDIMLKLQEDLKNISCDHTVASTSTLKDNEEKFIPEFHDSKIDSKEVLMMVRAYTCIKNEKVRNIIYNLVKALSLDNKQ
# [2] = target: T1, rTr1 (Ehrlichia chaffeensis); assay: EMSA; conditions: EMSA/footprint: 10 mM Tris-HCl pH 7.5, 100 mM NaCl, 1 mM DTT, 10% glycerol, 25 C, SPR: 10 mM Tris-HCl pH 7.5, 100 mM NaCl, 0.05% Tween 20, 25 C
# [3] = target: T2, rEcxR (Ehrlichia chaffeensis) (UniProt Q2GG40); assay: EMSA; conditions: EMSA/footprint: 10 mM Tris-HCl pH 7.5, 100 mM NaCl, 1 mM DTT, 10% glycerol, 25 C, SPR: 10 mM Tris-HCl pH 7.5, 100 mM NaCl, 0.05% Tween 20, 25 C
# T2 sequence: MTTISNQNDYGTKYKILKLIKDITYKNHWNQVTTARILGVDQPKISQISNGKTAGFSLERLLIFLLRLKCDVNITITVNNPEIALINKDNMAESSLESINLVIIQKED
# rTr1 [4] = target: T3, rTr1 (Ehrlichia chaffeensis, UniProt Q2GF81 1-213); assay: SPR; EMSA/footprint: 10 mM Tris-HCl pH 7.5, 100 mM NaCl, 1 mM DTT, 10% glycerol, 25 C; SPR: 10 mM Tris-HCl pH 7.5, 100 mM NaCl, 1 mM DTT, 0.05% Tween 20, 25 C; conditions: protein: recombinant, tags: N-terminal His (pET-33b), chain copies: 2
# T3 sequence: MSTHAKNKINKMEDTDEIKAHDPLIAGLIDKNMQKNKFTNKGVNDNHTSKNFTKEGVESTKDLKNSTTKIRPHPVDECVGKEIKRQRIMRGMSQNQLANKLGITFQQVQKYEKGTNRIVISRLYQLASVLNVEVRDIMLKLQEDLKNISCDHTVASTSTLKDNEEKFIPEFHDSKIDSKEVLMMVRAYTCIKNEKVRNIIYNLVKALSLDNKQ
# rTr1 [5] = target: T3, rTr1; assay: EMSA; 1.8 uM rTr1; EMSA/footprint: 10 mM Tris-HCl pH 7.5, 100 mM NaCl, 1 mM DTT, 10% glycerol, 25 C; SPR: 10 mM Tris-HCl pH 7.5, 100 mM NaCl, 1 mM DTT, 0.05% Tween 20, 25 C; conditions: protein: recombinant; tags: N-terminal His (pET-33b); chain copies: 2; blunt
# rEcxR = target: T4, rEcxR (Ehrlichia chaffeensis, UniProt Q2GG40 1-108); assay: SPR; EMSA/footprint: 10 mM Tris-HCl pH 7.5, 100 mM NaCl, 1 mM DTT, 10% glycerol, 25 C; SPR: 10 mM Tris-HCl pH 7.5, 100 mM NaCl, 1 mM DTT, 0.05% Tween 20, 25 C; conditions: protein: recombinant, tags: C-terminal His (pET-29a), chain copies: 2, none in plain EMSA
# T4 sequence: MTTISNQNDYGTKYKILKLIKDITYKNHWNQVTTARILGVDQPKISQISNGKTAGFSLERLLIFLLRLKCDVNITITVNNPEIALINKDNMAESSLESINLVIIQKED
# rTr1 [6] = target: T3, rTr1; assay: competition; 50-fold unlabelled vs biotinylated region II, 1 uM rTr1; EMSA/footprint: 10 mM Tris-HCl pH 7.5, 100 mM NaCl, 1 mM DTT, 10% glycerol, 25 C; SPR: 10 mM Tris-HCl pH 7.5, 100 mM NaCl, 1 mM DTT, 0.05% Tween 20, 25 C; conditions: protein: recombinant; tags: N-terminal His (pET-33b); chain copies: 2; blunt
# rTr1 [7] = target: T3, rTr1; assay: competition; 50-fold unlabelled vs biotinylated region I, 1 uM rTr1; EMSA/footprint: 10 mM Tris-HCl pH 7.5, 100 mM NaCl, 1 mM DTT, 10% glycerol, 25 C; SPR: 10 mM Tris-HCl pH 7.5, 100 mM NaCl, 1 mM DTT, 0.05% Tween 20, 25 C; conditions: protein: recombinant; tags: N-terminal His (pET-33b); chain copies: 2; blunt
molecule,measurement,setting,value
CCTATAACAAAGCAACCTATGTAAGATAAATCATGCATAAAGTGAATGCAATAGTTATTTAATGGATATATTCTATCTAGTTTGCTGGAATAGTATACTAATTATATAATATACAGAAATAACATATTATGCTTTATGAAATATAAGATAAAATTTATTTACTTTTTAGCTTGATTGGATCAATAATTTATATTAAACATGAAAGTCAGTTTGTCCGGGT (double strand) [tr1 promoter footprint fragment],binding,[1],binds
CCTATAACAAAGCAACCTATGTAAGATAAATCATGCATAAAGTGAATGCAATAGTTATTTAATGGATATATTCTATCTAGTTTGCTGGAATAGTATACTAATTATATAATATACAGAAATAACATATTATGCTTTATGAAATATAAGATAAAATTTATTTACTTTTTAGCTTGATTGGATCAATAATTTATATTAAACATGAAAGTCAGTTTGTCCGGGT (double strand) [tr1 promoter EMSA probe],binding,[2],binds
same,binding,[3],binds
ATGATATCAATGCACTTGTTATGAAAACTTTTTTGTAATTCATATATAACCTAATAGTGACAAATAAATTAACAATAGTAGAAGTGTCATATAAAAGCAAGTCAGAATATAAATTTTTGTATAAAATATCGGTAACTTTTGTAAGGAAAATTTAATATATTACGTCAGGTAAGTAATAGCAAAAAAACTGGTTAAGTATAGTATCATGTGTAAAGGTGAGAAAAACAGCACTTATA (double strand) [p28 promoter footprint fragment],binding,[1],binds
GAATTTGTGATTTGAAATAACAAGACTTAAATGTCGAATTTAGCTTCTGTCCTAGTGGATAAGTACTTTAGCAAGTGGTAAAAGCAAGTCTACTCATATTTTTATTAATTAAGTAGTAAAGTTAACTATAGATTTTATTAAAATTTTTATTCTAATCACTTTAAATATCAATTACTTTTGTTGTAAATTTGAAAGAAATTTTATATTCTAGACTTGCTTTTCTTTATTTCTTTCATTATTCTTAAATTTTTATTATCTTTTATAAAAGGTTTATTAAC (double strand) [omp-1B promoter footprint fragment],binding,[1],binds
GAATTTGTGATTTGAAATAACAAGACTTAAATGTCGAATTTAGCTTCTGTCCTAGTGGATAAGTACTTTAGCAAGTGGTAAAAGCAAGTCTACTCATATTTTTATTAATTAAGTAGTAAAGTTAACTATAGATTTTATTAAAATTTTTATTCTAATCACTTTAAATATCAATTACTTTTGTTGTAAATTTGAAAGAAATTTTATATTCTAGACTTGCTTTTCTTTATTTCTTTCATTATTCTTAAATTTTTATTATCTTTTATAAAAGGTTTATTAAC (double strand) [omp-1B promoter EMSA probe],binding,[2],binds
same,binding,[3],binds
GTGATAGGGAATGAATTCAGAGATATTCCTGCTATGATACCCAGTACCTCAACTCTCACAGGTAATCACTTTACTATAGTAACACTAAGTGTATGCCACTTTGGAGTGGAACTTGGAGGAAGGTTTAACTTTTAATTTTATTATTGCCACATGTTAAAAATAATCTAAACTTGTTTTTATTATTGCTGCAGGTAAATAAAAATAGTGGCAAAAGAATGTAGCAATAAGAGGGGGGGGGGGGGGACTAGTTTATAAGTGCTGTTTTTCTCACCTTTA (double strand) [p28 II footprint fragment],binding,[1],binds
B1,Kd,"rTr1 [4]; label: biotin for SPR (note on S35), blunt",14 nM
B2,binding result,rTr1 [5],binds
B3,Kd,"rTr1 [4]; none in plain EMSA, blunt",15.5 nM
same,binding result,rEcxR; blunt,no binding
B4,binding result,rTr1 [6],no binding
B5,Kd,"rTr1 [4]; none in plain EMSA, 5' overhang 3 nt on strand 1 (reverse oligo as printed is 47 nt)",2.52 nM
same,binding result,rEcxR; 5' overhang 3 nt on strand 1 (reverse oligo as printed is 47 nt),no binding
B6,binding result,rTr1 [7],no binding
